According to paper PMC3650007, “Human Rotavirus VP6-Specific Antibodies Mediate Intracellular Neutralization by Binding to a Quaternary Structure in the Transcriptional Pore” (PLoS ONE, 2013):

Target: T1, VP6 fragment (VP6f), residues 147-339 (Rotavirus A, strain of the VP6 DNA …)
T1 construct: also called VP6 head domain construct
T1 chain: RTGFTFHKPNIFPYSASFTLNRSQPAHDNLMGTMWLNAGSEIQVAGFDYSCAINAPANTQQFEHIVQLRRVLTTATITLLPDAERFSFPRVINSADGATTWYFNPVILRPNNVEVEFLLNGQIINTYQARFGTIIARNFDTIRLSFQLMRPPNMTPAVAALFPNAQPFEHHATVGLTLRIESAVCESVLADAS
Test: HDX-MS
Conditions: both partners purified

B1: RV6-26 Fab (Fab, V domains shown)
VH: EFQLVESGAEVKKPGASVKVSCKASGYSFTSYYVHWVREAPGEGLEWMGMINPSDGSTYYAQRFQPRVTMTRDTSTTTVFMEMSGLRSEDTAVYYCARGVVGATNEIDFWGQGTTVTVSS
VL: DIRLTQSPSSLSASVGDRVTITCRASQSISNYLNWYQKKPGQAPKLLIYAATSLQSGVPSRFSGSGSGTDFTLTISSVQPEDFATYYCQKTLRTWTFGQGTKVEIK
- binding result: binds
